Reference: the domain aggregation screens of Martell et al. (2025)

Assay: soluble fraction after stress (log2 fold change); higher = more stays soluble; pooled small domains, quantitative proteomics
Conditions: stress: 75 degC
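Note: 20 min heating vs room temperature control held 20 min.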

| Sequence | soluble fraction (log2) |
| --- | --- |
| HMDETELLLQKAIATLPDKQRVVFNLKYFDEMKYEEMSELLETSVGALKASYHLAVKKIEQFFHDA | -0.555 |
| HMDETYRRQLEDLAREHGAEYLHGILREVDPASAEAIHANNIKRVIRALEFYHLSGKKISEHNETERQ | -0.12 |
| HMDEVHYLADKERGTTWEEILIHADRDIKFLSLSATINNKNEFLEWLVSLRGTTSLIHSSTRPIPLEI | 0.231 |
| HMDEVLDQFVRGQIYGYIRANPGDIYSSIRDNLGLKNGVTTYHLDVLAREEYVYSEIDGTNRRFYPSGWEE | -2.77 |
| HMDEVVVVERGGVQITMSEIDAKIMELPVDVRPSYLDSPERLQNFVSNLLLEKQAAQLKSQY | -0.142 |
| HMDEWDPAILYVGLDYEDAAQIATRLATSGVPYRLSPDGTMITVPDDQVNNMRLTLAGEGFPH | -0.0325 |
| HMDEYFNPETVVHYLRELFDTYRENGGNPFEWFHSTFESVNLNPQNYRKDLITTIEKALIEWIEIFEKQ | -0.697 |
| HMDFDPDVPSREDILQAFRDSKPPLTVNALISEFGLSRDASIVGLERRMGAMQRDGQLEQTPSGWQLSV | -0.164 |
| HMDFFVLVGAYKTPDEAETIRAKIAFSGLDSSVSHGNDGRYRVRIGPFHSEGDARKAQSTLRANDIPGQII | -1.01 |
| HMDFGMPEELQKKLDKMPALKAAFEALTPGRQRGYIFYFSQPKQSKTRELRIEKSIEQIMNGKGLND | -0.414 |
| HMDFIEYIISEESKGLRADQAISMENDKFSRSLIQKWIKKGRVLVNGRKIKPKDIVNLNDKITINPEESIN | -0.36 |
| HMDFITPYEIEQGQYEGAELYEDGKFEEAFSLSSIAAQRGMKTAQYLLGIMFLKGEYVDQSLAIGMAW | -0.52 |
| HMDFPYISGIEIAAIKNREFIRIETDKAQEIAIALDKSGIPFSARFSDAEMVLTYDGSYKEQVEDIIAKA | -0.705 |
| HMDFSERLARAMSLAGYTQGRLAKEVGMAQSSVNKLLNGANGSRKTVEIASVLGVRPEWLSTGAGEML | -0.546 |
| HMDFSSRLKDERKRLKLSQAQLGEAGGVSKDAQLNYENGSRSPSASYLELIAREGVDVQFLLTGKRS | 0.155 |
| HMDFSYTVGDIDEPIDSRGNSVIMLRKLAWGSNAEKLEIRRWIIDIDSERANKGVTFLTEEGPHNLVRV | 0.272 |
| HMDFTISDADFHRLVQFIQQNYGVALSKKRQLISSRLSHSLRELGYKDFRTFLEHLFSTRDPADLELVLNK | -1.59 |
| HMDFYVILGVDRAASLSDVKRAYRRLARKHHPDINPGDPESDAFFMRVTEAYETLVDPDRRQEYDEHG | -0.75 |
| HMDGEFINLKNRAGTEIEARILNYQNGQVKLERKDGVTFVVSISMFDAKSVIAINHKIAEIIDT | -2.28 |
| HMDGIDALEPLMRRVFEALPQRRSMTIERAAVAAGLDEESVKIALVRLQLEGYVANDERGWHRSKSPH | -2.48 |
| HMDGIGLRVRMIREGVGLTQKQLAEHLGMQRTALVQVEAGSRKLSASELIGVARFFNITVEQFLDPEK | -3.5 |
| HMDGIPVPDVKGTVEAEATATLKNSGFEVTKTQDFSDTVEAGKVISQNPAGGSSAASGSSVTLVISQGPN | -0.0786 |
| HMDGISANAVKALIESLIAGEDKRKPLSDQAMSDRLALQGIVLARRTVAKYREELNFPPAHQRKQK | -1.41 |
| HMDGLPYPEAAEEPIAQVARNLGMDATRVSIALQEAKLIFRNLDETLAEIAANNGTTPQVVYDAIRHLEPP | -0.248 |
| HMDGLTEQQADDILAFISIKGTNAEVLAALENYAGRNETFDTGLSELKVVASNLAAFGMPEENFVVDL | 0.283 |
| HMDGPGDRLLIAIQENSMTQKKFAQLIGMSPNGLNSIIKGKKRLSRVLAIATERLTGVRADWILQNEQPK | -0.0913 |

| Sequence | soluble fraction (log2) |
| --- | --- |
| HMDGQPLSERQQEILRWVAEGLSNREIGERLNITPNTVRDHLSEVMRRLEVSNRTSAVSTAFHLGLLP | -0.0654 |
| HMDGRIRFRHAALHDPDVAARLHDYLTTSLPGVRSARVNSQTGSLLLEYDPEVLDRSTLLDLAARAESLL | -0.493 |
| HMDGRSLSHATLEEIRIRAVQRVEAGESPEVVVKALGFSRPRIYEWLALYREGGLEALRAKPV | -1.1 |
| HMDGSEYAGTVRLGDGTLQPVPRFETSNSETPKYLYLVMDVTHDPPVYILEHESAELKSVLGGLVLIGSYS | 0.0157 |
| HMDGTVRGKTTFQELLDWGVPQERIEAVLGGPIPAPGVVIKDYVTAQGKEFSAVRDALQAEVDAVLK | 0.144 |
| HMDGVLLDHLDGFVTTRRGVEAWLEQPTSFNKPSILLVAADGESTRRAIPSIAFGYDFASRHDIPAYDAG | -0.44 |
| HMDGVPPAGSRIRLTVSTQVGDKEFEGTLVPPAGVDLLTLKLANGYNLSHSIADVREVVLIEEGLQGEEP | -0.191 |
| HMDGVSLLFKLMETLPEQQKTILHLRDVEQLEFAEIAKITNTSQANVRVALSRARKKIKDLLLKQY | -2.52 |
| HMDGVYLKSLKQTEQHIHWSGYAQSNAWVSTLMRNLDASPWFESPLLIEIKAATINNSRSNEFDLNVRL | 0.0974 |
| HMDGYTVYTNWGSDTNVARSDQQIQSQIPQLSGATIVGVWTKPIATGGTSYKIRYRTNSGAFTEIDVDQ | -0.256 |
| HMDHKTKLQEVLQKSGDVFIEYRLIKEEGPAHERIFWIEVYVDDQLIGTGQGKSKKLAEQAAAENALAALE | -1.21 |
| HMDIEHREMKLQKLVITADSPLVGKTLKESNVRQRYNFMVVGVEEGQKNLTMINPNRRFEVGDIVWVVGEE | -0.743 |
| HMDIFGREAEVEQILQEVRFGDDPHYRLSIGILPVTGHAGAGKTALVRFIFHHEVARAEFTVRMWVHV | 0.154 |
| HMDIGKNIQTIRYANKLTQDQVIAKLNLMGISMSKSTYAKLETNRMNIKVSELVALAKIFHTDINAF | -2.62 |
| HMDIGTYTVTASALNIRQYPTASSAKTGSYPNGSIVTIYEYLTDGSWGRTDDGWISMNYVSRRY | -1.93 |
| HMDIHSEEYILGQNIRKYRLRLGWSQADLSNAVDIDRADISKYENGAKGIMSSTLLRKFAKALGVSMDALM | -3.32 |
| HMDILPRMVASEMRAVGVPPERMTREEKGTVIRNLMNAGIHQMKGAVVEIARQLHLSEPTVYRYIKREKG | -0.664 |
| HMDINMELGKNIRRLRKLNNLTQQSLANQMNRSKTLIALWEKGERDPSSIDLKRLSEIFNVRADDIIG | -0.799 |
| HMDIRMLLSDREEEIMILLSKGLSISEAANRMQIGQASAATYLNRARRKLKAETVRQAVAIWTGD | -1.87 |
| HMDISAFDTEFIISKFGGIRPMAQKLGVPVSTVQGWKQRQTIPQNRMGDILEAAKNYNLELTP | -0.112 |
| HMDISPAAKQRLALIQPLLEKNAEAITDRKLRNAVAKDIANNQNTTVRRVLRLYYRYLATGQVM | 0.192 |
| HMDIVIPIQVKNVSSGEVLDFPSIRAAARDLKFPKTTISLGVRYAGEKAYKGFVMRYRSDDPWPIVQES | -2 |
| HMDIYLDEVNRKILHLLSQGIKTRSLREYINLSMSAIEKRKKHMKELFLVEDGKDETLLNEARNKGF | -1.88 |
| HMDIYLTAFKTTSNQVTLNGIARSDLIISEFMRDIRDAKLFGEPVLQVIQNKNLNNVQARVFELVVPL | 0.115 |
| HMDKATMRWEQIEKFLETHPYIMNADVRALFNVSAATANRILATLTTEGKLVKYREGGHWAYKY | -1.1 |
| HMDKELILLWDRVKSKVWQMDIQDSQVANWFQRNYHLTVRLRDFDPPVPPDKFTAEQLASFIKDIERHT | -2.41 |

| Sequence | soluble fraction (log2) |
| --- | --- |
| HMDKGMQTMIDNLHKNTGKTLEEWIALVNRANFAKHGEVISFLKEKHGLTHGYANLVAHRLK | 0.863 |
| HMDKINQEAIEDEAGLWLAKIDGRQLAQEEVRELIAWMRRSDFHREYLITLARQWDGMAALNKLATLFP | -2.08 |
| HMDKLFNRQTLGGVELTQKQIEDLNAGKAIFVEGMQRKDGEVFSSYVKLDEATGRPSYTRYNPDSP | 0.933 |
| HMDKLSYALGLSMGHNFLGSGIKSLNVEDFAKGVEAVYKQEKPEISFDEAKKIINEFFSNLQDEIAE | -1.01 |
| HMDKNLQYADTPKGKLREYIKNLPNGSTVNRQKLAEEFGIKKQSMGTVTEVFQEFPDKNFKFVNP | -0.0476 |
| HMDKPVIEDVSFDDLAYMVGERVIIRTHLRSTRDGELKSFNRAGILVSLRNRPGMELEIPRSTVASAQVVW | -2.39 |
| HMDKQEKIHKKKIIILEALKRLLQNDVYSRITVQAVADEAGFSKGGLLHYFPTKEEMYIEFMEY | -0.103 |
| HMDKRYYYRILGLVGEPTRDQIEAAYETRIAKLRSSDYGDDPLYARRKISEVTMAYKVLTGS | -1.56 |
| HMDKSFLQSLHLIALGIVKNQMDPWELVNGWVEYYLKNKDKYIDHPNLKAVAVLKMKGLFIDHFRKS | -5.84 |
| HMDKSHYEELGVSRTATHAEIRRAYRHLMRTLHPDSNDGRVDAVRITKVNEAWNVLSQSSSRNAYDKSQV | -0.235 |
| HMDKTTIKNEQKKQILIFAEMNLFFKAKDVAELLGLQASRARYLLQELVKDGKIQGIGNNKGRKYQLI | -0.729 |
| HMDKVEQLMQNPVIQEKMSEGDRELLRNASLVVLGRLEDDGSIIQRFVELFGEEAYERLKSELM | -0.0149 |
| HMDLDIGSVLQASRGEKKISLRQLAERTGLTASMLSQIERNLVNPSINTLKVIAAALEIPMYKFFMG | -1.17 |
| HMDLEMLEVEDTIKDLLSQHQKINAIKYYRNYMSEQLNVDMGLRQAKDTIDAIGRGATVDLSVGY | -0.0747 |
| HMDLIEVLAQDTIKKIYNTYVAYKNKVDVFYVAFSGGKDSIVTLDLVQRTLPHNEFKVLFGDTGM | 0.243 |
| HMDLIFQKGDLVFSTEHNQRGIFYEYLEQGQAKISIEKQFFVVAARRLQLLTKREVLYPAGYDLDQLFV | -2.21 |
| HMDLKENQHILQISNKGVQMGNVLKDLIIQTLNITNGNQIKAAKLLAISRAKLRYRIEQLGINISGKNI | 0.000197 |
| HMDLKHNQITMRELLRNKQAYLLLYKEFPMFMTPAILQNIRPLTLQQIIQMVRPYISRPKLNMLLEQLENI | 0.164 |
| HMDLMQRVIIVRPVMQGDYLTRAHLGLQTLSRNGGGGFTDIDDLVGRRAKKSLRAGLVVHNRHL | -0.813 |
| HMDLPAEFSKPELETLFKRGKQSGELSLTEVRDALEAAQLPNKKTQTKVLKVLSDNAIHVLMDG | 0.0744 |
| HMDLPDFTSRERDILARVVQGDSNERIAASLGVSVSTVKTHIGNILRKTGQTNRVRLIVWATRHL | -2.58 |
| HMDLPDYYFRVRENGAVVFRVGTENRQRRIEMVEIATVNVKNGNIKPHGEVDLTKADRLAIGEWLAARQAQ | -1.54 |
| HMDLPRQSQYQALVVSYARRAGIDEAEEDLLAAFEVWRMRHNHDLAGGRTARDFILAYLPQYQRHKE | -1.98 |
| HMDLQNIQNQLNTEFAKSDTRIIFWFDDKGEYEDEVSELQLGDVKLHILDGLNWFYSKYLLNEA | -0.141 |
